Where a SMILES comes first, the peptide text is derived from it.
Experiments:
[1] = system: SP2/0-Ag-14 mouse myeloma cells; assay: Cytotoxicity of Aβ peptides, trypan blue dye exclusion; assay type: cell-based; settings: test peptides 20 μM, 24 hours
Protocol: SP2/0-Ag-14 mouse myeloma cells were maintained in RPMI 1640 medium containing 10% fetal calf serum at 37° C. in a 5% CO2 humidified atmosphere. For cytotoxicity experiments 2×1 05 cells were plated in 24 well dishes in 1 ml PBS containing 0.1% BSA and test peptides (20 μM) for 24 hours. Cell viability was determined by trypan blue dye exclusion with at least 100 cells counted per well (Milton, Biochem. J. 344: 293-296 (1999)).

[2] = molecular target: T1, recombinant p34-cdc2/cyclin B1 (Homo sapiens, UniProt P06493); assay: Phosphorylation of biotinylated Aβ peptides by recombinant p34-cdc2/cyclin B1 (32P incorporation); assay type: biochemical; settings: for phosphorylation by cdc2 (incorporation of 32P from γ32P-ATP): 25 μM biotinylated peptide, 10 min at 30° C.
T1 construct: purchased Promega, UK
T1 sequence (P06493 whole entry): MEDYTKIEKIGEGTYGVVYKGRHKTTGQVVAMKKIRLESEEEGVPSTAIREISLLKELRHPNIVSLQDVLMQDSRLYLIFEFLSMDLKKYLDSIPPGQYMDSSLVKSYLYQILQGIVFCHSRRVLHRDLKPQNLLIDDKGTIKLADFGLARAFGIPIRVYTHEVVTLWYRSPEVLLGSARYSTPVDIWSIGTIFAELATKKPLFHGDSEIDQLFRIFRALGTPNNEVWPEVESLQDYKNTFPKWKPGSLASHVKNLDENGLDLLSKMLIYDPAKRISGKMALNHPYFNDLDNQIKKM
T1 sequence (P14635 whole entry partner): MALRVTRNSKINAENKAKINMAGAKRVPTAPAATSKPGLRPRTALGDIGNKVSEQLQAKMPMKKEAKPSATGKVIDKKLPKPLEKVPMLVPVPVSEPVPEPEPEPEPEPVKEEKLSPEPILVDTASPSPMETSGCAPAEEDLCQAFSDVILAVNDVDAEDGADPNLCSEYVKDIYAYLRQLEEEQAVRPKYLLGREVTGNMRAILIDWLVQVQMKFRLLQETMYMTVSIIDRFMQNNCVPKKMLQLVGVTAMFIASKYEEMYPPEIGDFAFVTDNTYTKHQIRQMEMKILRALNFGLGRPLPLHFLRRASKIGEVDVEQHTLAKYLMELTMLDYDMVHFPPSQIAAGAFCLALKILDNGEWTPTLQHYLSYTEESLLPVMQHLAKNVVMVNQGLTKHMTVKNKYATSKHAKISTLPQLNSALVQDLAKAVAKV
From the text: The membrane was washed four times in 2 M NaCl, followed by four times in 2 M NaCl containing 1% (v/v) H3PO4 and finally twice in deionized H2O to remove unbound material.

[3] = molecular target: recombinant human cdc2 (Homo sapiens, UniProt P06493); assay: Binding of biotinylated Aβ peptides to recombinant human cdc2 coated plates (ELISA); settings: for binding to human cdc2: biotinylated peptide 200 pM, 37° C. 4 hours
Chain of recombinant human cdc2 (P06493 whole entry): as the sequence (P06493 whole entry) above
Protocol: After washing to remove unbound material, an alkaline phosphatase polymer-streptavidin conjugate (Sigma, Dorset, UK) was added and incubated at 37° C. for 2 hours.

Compound: CC(C)C[C@H](NC(=O)[C@H](CC(C)C)NC(=O)[C@H](CCCNC(=N)N)NC(=O)[C@H](CCCCN)NC(=O)[C@H](CCCCN)NC(=O)[C@H](Cc1c[nH]cn1)NC(=O)[C@H](CC(N)=O)NC(=O)[C@H](Cc1ccccc1)NC(=O)[C@@H](NC(=O)[C@@H](N)C(C)C)C(C)C)C(=O)O [AβAS(F) 14-23] (H-VVFNHKKRLL-OH)
- block of the cytotoxicity of Aβ 1-42 [1]: able to block
- block of the cytotoxicity of Aβ fragments containing residues 17-35 [1]: able to block

Compound: CC(C)C[C@H](N)C(=O)N[C@@H](Cc1ccccc1)C(=O)N1CCC[C@H]1C(=O)N[C@@H](CCCNC(=N)N)C(=O)N[C@@H](Cc1ccc(O)cc1)C(=O)N[C@@H](Cc1ccc(O)cc1)C(=O)N1CCC[C@H]1C(=O)N[C@@H](CCC(=O)O)C(=O)N[C@@H](Cc1ccc(O)cc1)C(=O)N[C@@H](Cc1c[nH]cn1)C(=O)O [AβAS(F) 27-36] (H-LFPRYYPEYH-OH)
- block of the cytotoxicity of Aβ 1-42 [1]: able to block
- block of the cytotoxicity of Aβ fragments containing residues 25-35 [1]: able to block

Compound: Aβ 1-42: major form of Amyloid-β protein, residues 1-42
- phosphorylation by cdc2 (incorporation of 32P from γ32P-ATP) [2]: incorporated
- binding to human cdc2 [3]: bound

Compound: Aβ 1-43: Amyloid-β 1-43 region, SEQ ID NO. 2
- phosphorylation by cdc2 (incorporation of 32P from γ32P-ATP) [2]: phosphorylated
- binding to human cdc2 [3]: binds to

Compound: Aβ 17-28: Aβ fragment, residues 17-28 (LVFFAEDVGSNK)
- inhibition of phosphorylation of Aβ [2]: inhibited
- inhibition of the binding of Aβ to cdc2 ([3]; biotinylated Aβ 1-40 (FIG. 5)): inhibited

Compound: CDKP1: synthetic peptide corresponding to cdc2 residues 119-133 (CHSRRVLHRDLKPQN)
- inhibition of phosphorylation of Aβ [2]: inhibited

Compound: PKTPKKAKKL (listed as Homo sapiens) [H1 peptide]
- Km ([2]; substrate of cdc2/cyclin B1, read-out: Michaelis constant (KM) for the phosphorylation): 2.7 µM

Reference: patent publication US20040072753A1, “Peptides for use in the treatment of alzheimer's disease” (priority 2000, published 2004)
